Source: patent US9958461B2, “Detection of protein to protein interactions” (THE GOVERNING COUNCIL OF THE UNIVERSITY OF TORONTO, priority 2013, dated 2018)
Blank lines part the entries; values can stand above or below the molecule they belong to.

Columns and labels:
EGFR-Wt [1] = assay: MaMTH EGFR-interactor screen, lentiviral preys against EGFR-wildtype bait (interaction score); format: cell-based, human; conditions: ratio of EGFR-Wt mean to EGFR-L858R mean interaction score
Method: (§1) After lentivirus harvest, target cells (stable 5×GAL4UAS-luciferase reporter-HEK293T cells) were infected at a multiplicity of infection (MOI) of around 0.3-0.4 to ensure single copy integration per cell. Cells were selected in puromycin for at least 48 h and transfected with either EGFR-wildtype or EGFR-L858R baits in triplicates. 24 h after transfection, cells were lysed and luciferase assays performed. On each set of interaction assays, various negative controls were included. To calculate a MaMTH-interaction scores, negative controls were averaged and the fold-change of luciferase activity compared to the averaged controls was calculated and defined as the interaction score.
(§2) Each set of experiments contains a defined set of negative controls in at least three replicates. Negative controls were chosen as such that there is a range of controls showing high-background luciferase activity (normally cytosolic proteins: Fabp5, Pex19) as well as medium-background luciferase activity (membrane-bound interactors: Pex7, GABBR2). Negative controls were averaged and the fold-change of luciferase activity was calculated. Using this method, we have a stringent cut-off and chose an interaction score >1 to be interacting proteins.
(§3) Our cut-off of 1 is based on fold-change difference in luciferase activity over averaged negative controls. Negative controls include cytosolic preys (which tend to promiscuously bind to many proteins), plasma membrane- and peroxisomal-prey proteins. In general, we chose stringent conditions by testing preys that tend to have high luciferase background with any bait tested, in order to generate high-confidence interaction data. […] Phosphorylated tyrosine residues on the receptor are typically docking sites for downstream cytoplasmic targets and recognized through SH2 or PTB domains^43.

EGFR-Wt [2] = target: T1, EGFR-Wt (Homo sapiens, UniProt P00533); assay: as above; format: cell-based; conditions: MaMTH interaction score of prey with EGFR-Wt bait, mean
T1 construct: with the advantage of testing full-length integral membrane proteins; (GGGGS)2 linker-Cub (human ubiquitin aa 35-76)-GAL4(1-147)-mNFkB(364-550) (C); expressed in transfected cells
Method: as §1, §2, §3

EGFR-L858R = target: T2, EGFR-L858R (Homo sapiens, UniProt P00533, L858R); assay: MaMTH EGFR-interactor screen, lentiviral preys against EGFR-L858R bait (interaction score); format: cell-based; conditions: MaMTH interaction score of prey with EGFR-L858R bait
T2 construct: with the advantage of testing full-length integral membrane proteins; (GGGGS)2 linker-Cub (human ubiquitin aa 35-76)-GAL4(1-147)-mNFkB(364-550) (C); expressed in transfected cells
Method: as §1, §2, §3

EGFR-Wt mean (EGFR-Wt [2]): 2.21 | EGFR-L858R mean (EGFR-L858R): 0.94
B1: ITK (protein, UniProt Q08881 1-620, looked up)
Tyrosine-protein kinase …: MNNFILLEEQLIKKSQQKRRTSPSNFKVRFFVLTKASLAYFEDRHGKKRTLKGSIELSRIKCVEIVKSDISIPCHYKYPFQVVHDNYLLYVFAPDRESRQRWVLALKEETRNNNSLVPKYHPNFWMDGKWRCCSQLEKLATGCAQYDPTKNASKKPLPPTPEDNRRPLWEPEETVVIALYDYQTNDPQELALRRNEEYCLLDSSEIHWWRVQDRNGHEGYVPSSYLVEKSPNNLETYEWYNKSISRDKAEKLLLDTGKEGAFMVRDSRTAGTYTVSVFTKAVVSENNPCIKHYHIKETNDNPKRYYVAEKYVFDSIPLLINYHQHNGGGLVTRLRYPVCFGRQKAPVTAGLRYGKWVIDPSELTFVQEIGSGQFGLVHLGYWLNKDKVAIKTIREGAMSEEDFIEEAEVMMKLSHPKLVQLYGVCLEQAPICLVFEFMEHGCLSDYLRTQRGLFAAETLLGMCLDVCEGMAYLEEACVIHRDLAARNCLVGENQVIKVSDFGMTRFVLDDQYTSSTGTKFPVKWASPEVFSFSRYSSKSDVWSFGVLMWEVFSEGKIPYENRSNSEVVEDISTGFRLYKPRLASTHVYQIMNHCWKERPEDRPAFSRLLRQLAEIAESGL
Wt/L858R (EGFR-Wt [1]): 2.35

EGFR-Wt mean (EGFR-Wt [2]): 3.99 | EGFR-L858R mean (EGFR-L858R): 2.43
B2: PLCG2 (protein, UniProt P16885 1-1265, looked up)
1-phosphatidylinositol …: MSTTVNVDSLAEYEKSQIKRALELGTVMTVFSFRKSTPERRTVQVIMETRQVAWSKTADKIEGFLDIMEIKEIRPGKNSKDFERAKAVRQKEDCCFTILYGTQFVLSTLSLAADSKEDAVNWLSGLKILHQEAMNASTPTIIESWLRKQIYSVDQTRRNSISLRELKTILPLINFKVSSAKFLKDKFVEIGAHKDELSFEQFHLFYKKLMFEQQKSILDEFKKDSSVFILGNTDRPDASAVYLHDFQRFLIHEQQEHWAQDLNKVRERMTKFIDDTMRETAEPFLFVDEFLTYLFSRENSIWDEKYDAVDMQDMNNPLSHYWISSSHNTYLTGDQLRSESSPEAYIRCLRMGCRCIELDCWDGPDGKPVIYHGWTRTTKIKFDDVVQAIKDHAFVTSSFPVILSIEEHCSVEQQRHMAKAFKEVFGDLLLTKPTEASADQLPSPSQLREKIIIKHKKLGPRGDVDVNMEDKKDEHKQQGELYMWDSIDQKWTRHYCAIADAKLSFSDDIEQTMEEEVPQDIPPTELHFGEKWFHKKVEKRTSAEKLLQEYCMETGGKDGTFLVRESETFPNDYTLSFWRSGRVQHCRIRSTMEGGTLKYYLTDNLTFSSIYALIQHYRETHLRCAEFELRLTDPVPNPNPHESKPWYYDSLSRGEAEDMLMRIPRDGAFLIRKREGSDSYAITFRARGKVKHCRINRDGRHFVLGTSAYFESLVELVSYYEKHSLYRKMRLRYPVTPELLERYNMERDINSLYDVSRMYVDPSEINPSMPQRTVKALYDYKAKRSDELSFCRGALIHNVSKEPGGWWKGDYGTRIQQYFPSNYVEDISTADFEELEKQIIEDNPLGSLCRGILDLNTYNVVKAPQGKNQKSFVFILEPKQQGDPPVEFATDRVEELFEWFQSIREITWKIDTKENNMKYWEKNQSIAIELSDLVVYCKPTSKTKDNLENPDFREIRSFVETKADSIIRQKPVDLLKYNQKGLTRVYPKGQRVDSSNYDPFRLWLCGSQMVALNFQTADKYMQMNHALFSLNGRTGYVLQPESMRTEKYDPMPPESQRKILMTLTVKVLGARHLPKLGRSIACPFVEVEICGAEYDNNKFKTTVVNDNGLSPIWAPTQEKVTFEIYDPNLAFLRFVVYEEDMFSDPNFLAHATYPIKAVKSGFRSVPLKNGYSEDIELASLLVFCEMRPVLESEEELYSSCRQLRRRQEELNNQLFLYDTHQNLRNANRDALVKEFSVNENQLQLYQEKCNKRLREKRVSNSKFYS
Wt/L858R (EGFR-Wt [1]): 1.64

EGFR-Wt mean (EGFR-Wt [2]): 33.81 | EGFR-L858R mean (EGFR-L858R): 22.11
B3: CTTN (protein, UniProt Q14247 1-550, looked up)
Src substrate cortactin: MWKASAGHAVSIAQDDAGADDWETDPDFVNDVSEKEQRWGAKTVQGSGHQEHINIHKLRENVFQEHQTLKEKELETGPKASHGYGGKFGVEQDRMDKSAVGHEYQSKLSKHCSQVDSVRGFGGKFGVQMDRVDQSAVGFEYQGKTEKHASQKDYSSGFGGKYGVQADRVDKSAVGFDYQGKTEKHESQRDYSKGFGGKYGIDKDKVDKSAVGFEYQGKTEKHESQKDYVKGFGGKFGVQTDRQDKCALGWDHQEKLQLHESQKDYKTGFGGKFGVQSERQDSAAVGFDYKEKLAKHESQQDYSKGFGGKYGVQKDRMDKNASTFEDVTQVSSAYQKTVPVEAVTSKTSNIRANFENLAKEKEQEDRRKAEAERAQRMAKERQEQEEARRKLEEQARAKTQTPPVSPAPQPTEERLPSSPVYEDAASFKAELSYRGPVSGTEPEPVYSMEAADYREASSQQGLAYATEAVYESAEAPGHYPAEDSTYDEYENDLGITAVALYDYQAAGDDEISFDPDDIITNIEMIDDGWWRGVCKGRYGLFPANYVELRQ
Wt/L858R (EGFR-Wt [1]): 1.53

EGFR-Wt mean (EGFR-Wt [2]): 2.11 | EGFR-L858R mean (EGFR-L858R): 1.34
B7: CTNNA1 (protein, UniProt P35221 2-906, looked up)
Catenin alpha-1: TAVHAGNINFKWDPKSLEIRTLAVERLLEPLVTQVTTLVNTNSKGPSNKKRGRSKKAHVLAASVEQATENFLEKGDKIAKESQFLKEELVAAVEDVRKQGDLMKAAAGEFADDPCSSVKRGNMVRAARALLSAVTRLLILADMADVYKLLVQLKVVEDGILKLRNAGNEQDLGIQYKALKPEVDKLNIMAAKRQQELKDVGHRDQMAAARGILQKNVPILYTASQACLQHPDVAAYKANRDLIYKQLQQAVTGISNAAQATASDDASQHQGGGGGELAYALNNFDKQIIVDPLSFSEERFRPSLEERLESIISGAALMADSSCTRDDRRERIVAECNAVRQALQDLLSEYMGNAGRKERSDALNSAIDKMTKKTRDLRRQLRKAVMDHVSDSFLETNVPLLVLIEAAKNGNEKEVKEYAQVFREHANKLIEVANLACSISNNEEGVKLVRMSASQLEALCPQVINAALALAAKPQSKLAQENMDLFKEQWEKQVRVLTDAVDDITSIDDFLAVSENHILEDVNKCVIALQEKDVDGLDRTAGAIRGRAARVIHVVTSEMDNYEPGVYTEKVLEATKLLSNTVMPRFTEQVEAAVEALSSDPAQPMDENEFIDASRLVYDGIRDIRKAVLMIRTPEELDDSDFETEDFDVRSRTSVQTEDDQLIAGQSARAIMAQLPQEQKAKIAEQVASFQEEKSKLDAEVSKWDDSGNDIIVLAKQMCMIMMEMTDFTRGKGPLKNTSDVISAAKKIAEAGSRMDKLGRTIADHCPDSACKQDLLAYLQRIALYCHQLNICSKVKAEVQNLGGELVVSGVDSAMSLIQAAKNLMNAVVQTVKASYVASTKYQKSQGMASLNLPAVSWKMKAPEKKPLVKREKQDETQTKIKRASQKKHVNPVQALSEFKAMDSI
Wt/L858R (EGFR-Wt [1]): 1.58

Further lines, the molecule ahead of its results:

B4: STAP2 (protein, UniProt Q9UGK3 1-403, looked up)
Signal-transducing adaptor …: MASALRPPRVPKPKGVLPSHYYESFLEKKGPCDRDYKKFWAGLQGLTIYFYNSNRDFQHVEKLNLGAFEKLTDEIPWGSSRDPGTHFSLILRDQEIKFKVETLECREMWKGFILTVVELRVPTDLTLLPGHLYMMSEVLAKEEARRALETPSCFLKVSRLEAQLLLERYPECGNLLLRPSGDGADGVSVTTRQMHNGTHVVRHYKVKREGPKYVIDVEQPFSCTSLDAVVNYFVSHTKKALVPFLLDEDYEKVLGYVEADKENGENVWVAPSAPGPGPAPCTGGPKPLSPASSQDKLPPLPPLPNQEENYVTPIGDGPAVDYENQDVASSSWPVILKPKKLPKPPAKLPKPPVGPKPEPKVFNGGLGRKLPVSSAQPLFPTAGLADMTAELQKKLEKRRALEH
Wt/L858R (EGFR-Wt [1]): 1.86 | EGFR-Wt mean (EGFR-Wt [2]): 2.76 | EGFR-L858R mean (EGFR-L858R): 1.49

B5: PTPN12 (protein, UniProt Q05209 1-780, looked up)
Tyrosine-protein phosphatase …: MEQVEILRKFIQRVQAMKSPDHNGEDNFARDFMRLRRLSTKYRTEKIYPTATGEKEENVKKNRYKDILPFDHSRVKLTLKTPSQDSDYINANFIKGVYGPKAYVATQGPLANTVIDFWRMIWEYNVVIIVMACREFEMGRKKCERYWPLYGEDPITFAPFKISCEDEQARTDYFIRTLLLEFQNESRRLYQFHYVNWPDHDVPSSFDSILDMISLMRKYQEHEDVPICIHCSAGCGRTGAICAIDYTWNLLKAGKIPEEFNVFNLIQEMRTQRHSAVQTKEQYELVHRAIAQLFEKQLQLYEIHGAQKIADGVNEINTENMVSSIEPEKQDSPPPKPPRTRSCLVEGDAKEEILQPPEPHPVPPILTPSPPSAFPTVTTVWQDNDRYHPKPVLHMVSSEQHSADLNRNYSKSTELPGKNESTIEQIDKKLERNLSFEIKKVPLQEGPKSFDGNTLLNRGHAIKIKSASPCIADKISKPQELSSDLNVGDTSQNSCVDCSVTQSNKVSVTPPEESQNSDTPPRPDRLPLDEKGHVTWSFHGPENAIPIPDLSEGNSSDINYQTRKTVSLTPSPTTQVETPDLVDHDNTSPLFRTPLSFTNPLHSDDSDSDERNSDGAVTQNKTNISTASATVSAATSTESISTRKVLPMSIARHNIAGTTHSGAEKDVDVSEDSPPPLPERTPESFVLASEHNTPVRSEWSELQSQERSEQKKSEGLITSENEKCDHPAGGIHYEMCIECPPTFSDKREQISENPTEATDIGFGNRCGKPKGPRDPPSEWT
Wt/L858R (EGFR-Wt [1]): 2.20 | EGFR-Wt mean (EGFR-Wt [2]): 2.64 | EGFR-L858R mean (EGFR-L858R): 1.20

B6: LAT (protein, UniProt O43561 1-262, looked up)
Linker for activation of …: MEEAILVPCVLGLLLLPILAMLMALCVHCHRLPGSYDSTSSDSLYPRGIQFKRPHTVAPWPPAYPPVTSYPPLSQPDLLPIPRSPQPLGGSHRTPSSRRDSDGANSVASYENEGASGIRGAQAGWGVWGPSWTRLTPVSLPPEPACEDADEDEDDYHNPGYLVVLPDSTPATSTAAPSAPALSTPGIRDSAFSMESIDDYVNVPESGESAEASLDGSREYVNVSQELHPGAAKTEPAALSSQEAEEVEEEGAPDYENLQELN
Wt/L858R (EGFR-Wt [1]): 1.61 | EGFR-Wt mean (EGFR-Wt [2]): 29.54 | EGFR-L858R mean (EGFR-L858R): 18.39
